Source: PMC2991499
Numbering of substitutions follows the chain as printed.

Assays:
Assay in all cases: EMSA
[1] = biological target: T1, RB69 DNA polymerase gp43 PolY567A Exo+ (bacteriophage RB69, UniProt Q38087 1-903, Y567A)
T1 sequence: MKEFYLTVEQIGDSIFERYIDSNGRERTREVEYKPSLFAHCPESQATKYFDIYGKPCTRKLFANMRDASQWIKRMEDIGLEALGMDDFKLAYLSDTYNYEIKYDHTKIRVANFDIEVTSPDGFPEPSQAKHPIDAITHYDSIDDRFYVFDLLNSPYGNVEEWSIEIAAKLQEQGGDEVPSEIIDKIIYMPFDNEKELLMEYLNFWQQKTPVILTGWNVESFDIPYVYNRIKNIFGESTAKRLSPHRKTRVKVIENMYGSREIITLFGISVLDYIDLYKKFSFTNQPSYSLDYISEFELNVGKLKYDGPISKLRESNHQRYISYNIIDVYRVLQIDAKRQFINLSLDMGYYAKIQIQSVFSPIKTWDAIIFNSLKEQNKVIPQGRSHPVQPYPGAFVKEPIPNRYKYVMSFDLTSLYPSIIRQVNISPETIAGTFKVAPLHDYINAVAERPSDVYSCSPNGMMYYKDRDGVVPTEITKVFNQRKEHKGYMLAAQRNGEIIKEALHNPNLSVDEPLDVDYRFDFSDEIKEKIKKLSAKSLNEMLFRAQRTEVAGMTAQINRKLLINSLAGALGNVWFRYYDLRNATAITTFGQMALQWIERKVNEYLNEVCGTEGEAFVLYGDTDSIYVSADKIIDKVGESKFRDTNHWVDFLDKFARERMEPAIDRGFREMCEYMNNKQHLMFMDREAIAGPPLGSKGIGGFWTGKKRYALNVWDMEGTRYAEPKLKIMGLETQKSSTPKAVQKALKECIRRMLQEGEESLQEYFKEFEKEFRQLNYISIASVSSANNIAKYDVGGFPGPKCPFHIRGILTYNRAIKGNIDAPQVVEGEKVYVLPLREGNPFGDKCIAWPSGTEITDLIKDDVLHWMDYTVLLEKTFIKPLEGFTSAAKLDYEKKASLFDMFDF

[2] = biological target: T2, RB69 DNA polymerase gp43 PolS565G/Y567A Exo+ (bacteriophage RB69, UniProt Q38087 1-903, S565G;Y567A)
T2 sequence: T1 sequence with S565G

[3] = biological target: T3, RB69 DNA polymerase gp43 Pol+ Exo+ (wild type) (bacteriophage RB69, UniProt Q38087 1-903)
T3 sequence: T1 sequence with A567Y

[4] = biological target: T4, RB69 DNA polymerase gp43 PolS565G Exo+ (bacteriophage RB69, UniProt Q38087 1-903, S565G)
T4 sequence: T1 sequence with S565G, A567Y

B1: mismatched dsDNA primer/template 20/30-mer, terminal T·G (dsDNA)
DNA 1: ATGTGCTGCAAGGCGATTAG
DNA 2: GTTACCCAACTTAATCGCCTTGCAGCACAT
For B1, the Kd [1] was 25.7 ± 3.2 nM, the Kd [2] was 79.9 ± 4.8 nM and the Kd [3] was 38.2 ± 4.3 nM. It also gave a Kd [4] of 132 ± 5.7 nM.

B2: normal dsDNA primer/template 20/35-mer (dsDNA)
DNA 1: TTTGATGTATTATCAATTGT
DNA 2: TGCCTTCGTAATCTTACAATTGATAATACATCAAA
B2 was tested, and the Kd [1] was 13.2 ± 1.4 nM, the Kd [2] was 29.9 ± 1.9 nM and the Kd [3] was 6.9 ± 2.1 nM. It also gave a Kd [4] of 38.9 ± 3.4 nM.
